Laboratory results reported in patent US12221481B2, “CD19 binding molecules and uses thereof” (Novartis AG, priority 2019, dated 2025).
Numbering of substitutions follows the chain as printed.

T1: recombinant human CD2 (Homo sapiens, UniProt P06729)
T1 construct: transiently produced and purified from HEK293 cells along with the CD2 extracellular domain; made in house; host or cells: HEK293 / HEK293F, transient
T1 sequence (P06729 with tags, fused parts or gaps): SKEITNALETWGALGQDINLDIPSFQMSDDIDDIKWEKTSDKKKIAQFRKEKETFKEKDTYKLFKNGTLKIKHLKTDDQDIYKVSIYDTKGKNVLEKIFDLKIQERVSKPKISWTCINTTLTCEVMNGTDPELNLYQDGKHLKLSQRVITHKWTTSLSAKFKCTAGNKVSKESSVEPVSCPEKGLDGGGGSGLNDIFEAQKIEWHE

T2: human CD19 (Homo sapiens, UniProt P15391)
T2 construct: expressed in transfected cells; host or cells: mouse cell line 300.19
T2 sequence (P15391 20-556): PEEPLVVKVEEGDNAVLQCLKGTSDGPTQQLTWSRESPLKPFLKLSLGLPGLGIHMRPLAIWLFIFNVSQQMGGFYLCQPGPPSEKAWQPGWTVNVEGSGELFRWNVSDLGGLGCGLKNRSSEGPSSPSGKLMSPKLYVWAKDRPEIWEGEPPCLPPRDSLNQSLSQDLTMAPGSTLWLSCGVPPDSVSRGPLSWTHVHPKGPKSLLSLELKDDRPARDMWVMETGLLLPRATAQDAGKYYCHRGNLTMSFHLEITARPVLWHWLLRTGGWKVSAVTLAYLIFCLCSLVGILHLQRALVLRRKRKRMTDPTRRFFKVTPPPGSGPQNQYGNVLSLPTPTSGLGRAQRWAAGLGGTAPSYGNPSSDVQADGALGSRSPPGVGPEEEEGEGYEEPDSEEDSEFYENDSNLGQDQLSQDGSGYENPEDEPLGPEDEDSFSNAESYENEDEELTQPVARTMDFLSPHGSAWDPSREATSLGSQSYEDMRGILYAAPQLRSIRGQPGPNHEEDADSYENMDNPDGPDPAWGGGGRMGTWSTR

B1: CD3hi: anti-CD3 antibody having high affinity to CD3 (in relative terms) (antibody, V domains shown)
VH: EVQLVESGGGLVQPGGSLKLSCAASGFTFNTYAMNWVRQASGKGLEWVGRIRSKYNNYATYYADSVKDRFTISRDDSKSTLYLQMNSLKTEDTAVYYCVRHGNFGNSYVSWFAYWGQGTLVTVSS
VL: QAVVTQEPSLTVSPGGTVTLTCRSSTGAVTTSNYANWVQQKPGQAPRGLIGGTNKRAPWTPARFSGSLLGDKAALTLSGAQPEDEAEYFCALWYSNLWVFGGGTKLTVL
B2: CD3med: anti-CD3 antibody having medium affinity to CD3 (in relative terms) (antibody, V domains shown)
VH: B1 VH with S79N, L81A, Y114H
VL: B1 VL with R23G, T31S, D71G, F89Y
B3: CD3lo: anti-CD3 antibody having low affinity to CD3 (in relative terms) (antibody, V domains shown)
VH: B1 VH with L81A
VL: B1 VL
B4: CD58 Full ECD: recombinant human CD58 full extracellular domain (protein)
chain: SQQIYGVVYGNVTFHVPSNVPLKEVLWKKQKDKVAELENSEFRAFSSFKNRVYLDTVSGSLTIYNLTSSDEDEYEMESPNITDTMKFFLYVLESLPSPTLTCALTNGSIEVQCMIPEHYNSHRGLIMYSWDCPMEQCKRNSTSIYFKMENDLPQKIQCTLSNPLFNTTSSIILTTCIPSSGHSRHRGGGGSHHHHHHHH
B5: NEG258: CD19 antibody; VH SEQ ID NO:13, VL SEQ ID NO:26 (antibody, V domains shown)
VH: QVQLVQSGAEVKKPGASVKVSCKASGYTFTTYWIQWVRQAPGQRLEWMGAVYPGDADTRYTQKFQGRVTLTADRSASTAYMELSSLRSEDTAVYYCGRDAGLEYYALDYWGQGTLVTVSS
VL: EIVMTQSPATLSVSPGERATLSCRASQDVGTAVAWYQQKPGQAPRLLIYWASTRHTGIPARFSGSGSGTEFTLTISSLQSEDFAVYFCQQYANFPLYTFGQGTKLEIK
B6: IgV V54C_G88C: CD58 IgV domain with V54 and G88 replaced by cysteines (stabilizing disulfide) (protein)
chain: SQQIYGVVYGNVTFHVPSNVPLKECLWKKQKDKVAELENSEFRAFSSFKNRVYLDTVSCSLTIYNLTSSDEDEYEMESPNITDTMKFFLYVLESGGGGSHHHHHHHH
B7: IgV V45C_M105C: CD58 IgV domain with V45 and M105 replaced by cysteines (stabilizing disulfide) (protein)
chain: B6 chain with V16C, C25V, C59G, M76C
B8: IgV V45C_M114C: CD58 IgV domain with V45 and M114 replaced by cysteines (stabilizing disulfide) (protein)
chain: B6 chain with V16C, C25V, C59G, M85C
B9: CD58_IgV: recombinant human CD58 IgV domain (domain 1), no added disulfide (protein)
chain: B6 chain with C25V, C59G
B10: NEG218: CD19 antibody; VH SEQ ID NO:39, VL SEQ ID NO:52 (antibody, V domains shown)
VH: EVQLVQSGAEVKKPGESLKISCKASGYSFTNYWMNWVRQMPGKGLEWMGMIHPSDSEIRLNQKFQGQVTLSVDKSIGTAYMQWSSLKASDTAMYYCSRWYYLSSPMDYWGQGTTVTVSS
VL: EIVMTQSPATLSVSPGERATLSCRASQDVGTAVAWYQQKPGQAPRLLIYWASTRHTGIPARFSGSGSGTEFTLTISSLQSEDFAVYFCQQYSSYPYTFGQGTKLEIK

Experiments:
CD3-Fc = assay: CD3 affinity measurement of anti-CD3 mAbs (Biacore T200); format: binding; settings: as measured by Biacore; stated to be for identification, not absolute affinity values
Text: For each trispecific construct, three plasmids were synthesized. […] It should be understood that with respect to the mentioned Biacore affinity values and relative terms in the construct names, these are used merely for identification purposes and are not intended to represent absolute affinity values. A second plasmid encoding a light chain was synthesized as a fusion comprising (in the N-terminal to C-terminal direction) (i) an anti-CD19 VL domain and (ii) a constant human kappa sequence. The proteins encoded by the first and second plasmids form the first half antibody. A third plasmid encoding the second half antibody was synthesized as a fusion comprising (in the N-terminal to C-terminal direction) (i) the IgV domain of CD58 (CD58-6) and (ii) a constant hIgG1 domain containing a T366W mutation for a knob to facilitate heterodimerization as well as silencing mutations.
Briefly, anti-hFc IgG1 was immobilized on a CM5 chip. After capturing CD3-Fc (1 μg/ml in HBS-EP+ buffer, flow rate of 50 μl/min, with a 30 second injection time) kinetic data was acquired by subsequent injections of 1:2 dilution series of the different antibodies in HBS-EP+ buffer.
Data were evaluated using the Biacore T200 evaluation software version 1.0. The raw data were double referenced, i.e. the response of the measuring flow cell was corrected for the response of the reference flow cell, and in a second step the response of a blank injection was subtracted. Finally, the sensorgrams were fitted by applying 1:1 binding model to calculate kinetic rate constants and dissociation equilibrium constants. Rmax was set at local. Data were processed individually for each run.

[1] = Thermal stability of CD58 variants by differential scanning fluorimetry (DSF); format: physicochemical
Procedure: Disulfide stabilized variants were assessed for improved thermal stability using both differential scanning calorimetry (DSC) and differential scanning fluorimetry (DSF) using standard techniques. For DSF, 1-3 ug of each construct was add to 1× Sypro Orange (Thermo-Fisher) in 25 ul total volume in 96-well PCR plate. Using a Bio-Rad CFX96 RT-PCR system equipped with C1000 Thermal Cycler, the temperature was increased from 25° C. to 95° C. at 0.5° C./minute and the fluorescence monitored. The manufacturer-supplied software was used to determine Tm.

[2] = Thermal stability of CD58 variants by differential scanning calorimetry (DSC); format: physicochemical; settings: HBS, 0.5 mg/mL
Procedure: For DSC, all samples were dialyzed into HEPES-buffered saline (HBS) and diluted to final concentration of 0.5 mg/mL. Tm and Tonset were determined using a MicroCal VP-Capillary DSC system (Malvern) by increasing temperature from 25° C. to 100° C. at 1° C./minute with a filtering period of 2 seconds and a mid-gain setting.

recombinant human CD2 = target: T1, recombinant human CD2; assay: Isothermal calorimetry (ITC) of CD58 variants binding to CD2; settings: apparent KD, CD2 titrated into 10 μM CD58 variant, HBS
Procedure: To ensure the binding affinity remained uncompromised by the additional of the stabilizing disulfide variance, isothermal calorimetry (ITC) was performed on the resulting recombinant CD58 proteins to determine their apparent KD and binding stoichiometry (n) to recombinant human CD2.
Briefly, recombinant human CD2 and recombinant human CD58 variants were dialyzed into HEPES-buffered saline (HBS). CD2 was diluted to final concentration of 100 μM, CD58 variants were diluted to 10 μM. CD2 was titrated into 10 μM of CD58 variants via multiple injections and ΔH (kcal/mole) determined using a MicroCal VP-ITC isothermal titration calorimeter (Malvern). Titrations of CD2 into HBS were used as a reference and KD and n determined from the resulting data.

human CD19 = target: T2, human CD19; assay: Binding of TBMs to 300.19 cells overexpressing human CD19 (FACS); settings: for binding to human CD19 compared with cyno CD19: 300.19 cells overexpressing human or cyno CD19
Procedure: (§1) The mouse cell line 300.19 was engineered to overexpress either human CD19 or cyno CD19. Cells were cultured in RPMI medium (Invitrogen #11875-093) with 10% FBS and 2-mercaptoethanol. Cells were harvested and resuspended in FACS buffer (PBS containing 1% FBS). 50,000 cells per well were plated in a V-bottom 96-well plate. Each cell line was incubated with serial dilutions of TBMs of Example 1A (i.e., R variants) for one hour on ice. Cells were centrifuged for 4 min at 400×g and washed with FACS buffer. This was repeated twice, and then the cells were incubated with Alexa-647 labeled anti-human Fc secondary antibody (Jackson Immuno #109-605-098) for 30 min on ice. The cells were washed twice, then resuspended in 100 μL of FACS buffer. FACS data was collected on a Beckman Coulter Cytoflex and analysis was performed using CytExpert v2.3.

cyno CD19 = assay: Binding of TBMs to 300.19 cells overexpressing cyno CD19 (FACS); parameters: species or system cynomolgus
Procedure: as §1

Molecule	Kd (CD3-Fc)	Tm by Differential Scanning Fluorimetry (DSF) [1]	Tm by Differential Scanning Calorimetry (DSC) [2]	Tmonset by Differential Scanning Calorimetry (DSC) [2]	further results
B1	16 nM				
B2	30 nM				
B3	48 nM				
B4		59.5 °C	65.0 °C	48.8 °C	Kd (recombinant human CD2): 570 nM
B5					affinity for human CD19, NEG258 vs NEG218 (human CD19): greater affinity for both human CD19 and cyno CD19; binding to human CD19 compared with cyno CD19 (human CD19): bind equally to both human and cyno; affinity for cyno CD19, NEG258 vs NEG218 (cyno CD19): greater affinity for both human CD19 and cyno CD19
B6		76.5 °C	80.9 °C	66.7 °C	
B7		48.5 °C	66.8 °C	43.9 °C	
B8		63.5 °C	72.5 °C	49.6 °C	
B9		48.5 °C	60.9 °C	46.3 °C	
B10					binding to human CD19 compared with cyno CD19 (human CD19): greater affinity for cyno CD19 than human CD19
